Values quoted from earlier work as cited in publication PMC3727077.
Read-outs that look alike come from different tables or passages of the source.

Key:
[1] = molecular target: α2M (Homo sapiens) (UniProt P01023)
[2] = molecular target: NRP1 (Homo sapiens) (UniProt O14786)
[3] = molecular target: α2MFAST (Homo sapiens) (UniProt P01023)
[4] = molecular target: VEGFR1 (Homo sapiens) (UniProt P17948)
[5] = molecular target: VEGFR2 (Homo sapiens) (UniProt P35968)
[6] = molecular target: NRP1 (Homo sapiens) (UniProt O14786); remark: listed apart in the source

Chain of UniProt P35968 (P35968 20-1356): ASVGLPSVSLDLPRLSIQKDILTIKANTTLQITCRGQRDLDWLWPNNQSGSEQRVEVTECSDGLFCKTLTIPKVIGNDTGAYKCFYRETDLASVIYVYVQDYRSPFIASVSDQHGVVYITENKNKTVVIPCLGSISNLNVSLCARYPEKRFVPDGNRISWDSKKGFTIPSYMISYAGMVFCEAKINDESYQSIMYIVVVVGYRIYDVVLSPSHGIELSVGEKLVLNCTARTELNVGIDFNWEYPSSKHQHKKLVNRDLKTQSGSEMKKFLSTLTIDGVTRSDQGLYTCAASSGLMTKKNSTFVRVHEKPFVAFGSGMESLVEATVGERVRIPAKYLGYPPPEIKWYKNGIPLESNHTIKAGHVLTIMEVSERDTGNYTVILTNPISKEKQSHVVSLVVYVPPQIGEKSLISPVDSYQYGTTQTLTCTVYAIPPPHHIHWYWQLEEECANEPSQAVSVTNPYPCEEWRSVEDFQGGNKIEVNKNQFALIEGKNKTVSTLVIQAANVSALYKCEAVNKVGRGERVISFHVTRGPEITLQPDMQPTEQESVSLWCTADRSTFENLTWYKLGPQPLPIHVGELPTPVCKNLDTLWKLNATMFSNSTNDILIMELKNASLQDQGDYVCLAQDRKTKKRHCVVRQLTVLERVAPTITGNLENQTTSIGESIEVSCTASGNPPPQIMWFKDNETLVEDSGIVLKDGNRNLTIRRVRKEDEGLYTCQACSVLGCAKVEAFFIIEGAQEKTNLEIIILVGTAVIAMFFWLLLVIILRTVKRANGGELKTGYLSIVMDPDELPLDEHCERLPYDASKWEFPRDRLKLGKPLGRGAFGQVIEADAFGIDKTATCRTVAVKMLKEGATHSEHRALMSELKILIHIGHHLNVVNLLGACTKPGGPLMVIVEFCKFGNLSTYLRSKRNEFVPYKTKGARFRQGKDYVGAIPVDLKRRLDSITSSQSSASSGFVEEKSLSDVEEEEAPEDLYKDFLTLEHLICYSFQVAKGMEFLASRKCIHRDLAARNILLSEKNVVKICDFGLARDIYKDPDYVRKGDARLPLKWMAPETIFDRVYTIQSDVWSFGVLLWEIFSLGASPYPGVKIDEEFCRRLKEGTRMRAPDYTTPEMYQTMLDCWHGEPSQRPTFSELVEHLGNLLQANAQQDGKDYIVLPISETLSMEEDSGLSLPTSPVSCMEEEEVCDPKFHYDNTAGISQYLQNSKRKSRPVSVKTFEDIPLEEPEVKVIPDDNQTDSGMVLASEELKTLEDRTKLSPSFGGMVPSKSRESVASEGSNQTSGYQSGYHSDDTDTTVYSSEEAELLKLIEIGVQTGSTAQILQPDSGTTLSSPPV

Substance	Kd [1] [nM]	Kd [2] [nM]	Kd [3] [nM]	Kd [4] [nM]	Kd [5] [nM]	Kd [6] [nM]
VEGF (from UniProt P15692)	4000	0.312	420	0.033	0.1	
sVEGFR1 soluble (from UniProt P17948)						1.8
